The values that follow come from patent US20230110249A1 (University of California, published 2023).

The term Kd denotes a measure of binding affinity in units of concentration. A higher Kd goes with lower affinity.

Assay [1] deals with T1, human ROR1 protein (construct not stated) (human, UniProt Q01973 30-406, limits assumed).
T1 construct: also called hROR1
Description: method not stated (FIG. 12).

Assay [2] has as its target recombinant human ROR1 protein with the mouse amino acid residue at position 138 (human, UniProt Q01973 30-406, limits assumed). Description: immunoblot after non-denaturing PAGE (FIG. 10). The source says: Constructs depicted in FIG. 6 were used to select high affinity recombinant antibodies. […] Human and chimeric ROR1-ex constructs were transfected into 293 cells. This allowed for production of recombinant human-mouse chimeric ROR1 proteins that could be size separated in a non-denaturing PAGE gel or SDS PAGE gel for immunoblot analysis with different anti-ROR1 mAb. […] The full human extracellular domain is provided on the far left lane of either gel (FIG. 11).
(A western blot detects proteins with antibodies after separation by electrophoresis.)

The target of assay [3] is T1, human ROR1 protein (construct not …). The assay can be described thus: method not stated (binding affinity; FIG. 12C).

T1 sequence (Q01973 30-406 limits assumed): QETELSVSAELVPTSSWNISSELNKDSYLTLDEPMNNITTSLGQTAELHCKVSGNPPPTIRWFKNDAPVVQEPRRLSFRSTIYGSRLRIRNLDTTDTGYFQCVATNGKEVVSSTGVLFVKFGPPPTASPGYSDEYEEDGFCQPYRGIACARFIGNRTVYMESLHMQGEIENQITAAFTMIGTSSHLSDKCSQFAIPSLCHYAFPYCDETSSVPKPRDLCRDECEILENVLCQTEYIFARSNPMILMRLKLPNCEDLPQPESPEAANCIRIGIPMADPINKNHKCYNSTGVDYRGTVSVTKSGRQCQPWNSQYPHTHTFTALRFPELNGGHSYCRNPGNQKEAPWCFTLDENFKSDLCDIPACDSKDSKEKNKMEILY
Chain of recombinant human ROR1 protein with the mouse amino acid residue at position 138 (Q01973 30-406 E138K limits assumed): as the sequence (Q01973 30-406 limits assumed) above, with E109K counted along it

B1: anti-human ROR1 antibody 99961 (antibody, V domains shown)
VH: EIQLQQSGPVLVKPGASVKVSCKASGYAFTAYNIHWVRQSHGKRLEWIGSFDPYDGGSSYNQKFKDKATLTVDKSSTTAYMHLNSLTSEDSAVYYCARGWYYFDYWGHGTTLTVSS
VL: DVQITQSPSYLAASPGETITINCRASKSISKYLAWYQEKPGKTNKLLIYSGSTLQSGIPSRFRGSGSGTDFTLTISSLEPEDFAMYYCQQHDESPYTFGEGTKLEIK
notes: also called Ab9991
For B1, in assay [1], the “fold higher binding affinity than D10” value came out at 50 fold. Also, the binding result in assay [2] is on record as “no binding”. In addition, the Kd in assay [3] came out at 0.8 nM.

B2: anti-ROR1 monoclonal antibody D10 (antibody, V domains shown)
VH: QVQLKESGPGLVAPSQTLSITCTVSGFSLTSYGVHWVRQPPGKGLEWLGVIWAGGFTNYNSALKSRLSISKDNSKSQVLLKMTSLQTDDTAMYYCARRGSSYSMDYWGQGTSVIVSS
VL: EIVLSQSPAITAASLGQKVTITCSASSNVSYIHWYQQRSGTSPRPWIYEISKLASGVPVRFSGSGSGTSYSLTISSMEAEDAAIYYCQQWNYPLITFGSGTKLEIQ
B2 gave a Kd in assay [3] of 41 nM.
